Measurements from patent US8821943B2, “Methods and compositions for targeted delivery of therapeutic agents” (Board of Regents of the University of Nebraska, priority 2006, dated 2014).
Like-named read-outs stand apart in the source and are kept apart here.

Key:
LHRH-receptor = test: Receptor binding assays (kinetic, saturation, competition) with 125I-deslorelin in bovine pituitary and nasal tissue homogenates; conditions: for IC50: read-out: Low affinity - IC50 II
Protocol: Radioactivity was measured in the pellet using a Perkin-Elmer γ-counter.
Reprod. […] Reprod. […] Radioactivity was measured in the pellet using a Perkin-Elmer γ-counter. […] The experiment was repeated three times.
Competition Studies: To determine the amount of unlabelled deslorelin required to displace the radioactivity, competition studies were conducted. […] Assays were performed in triplicates. At the end of 4 hr, the incubation tubes were centrifuged at 10,000 g for 20 min at 4° C. to separate the bound fraction. Radioactivity was measured in the pellet using a Perkin-Elmer γ-counter. The same controls as in the kinetic and saturation studies were used. The experiment was repeated three times.

[1] = in vivo, cited from earlier work
[2] = 3H-mannitol transport across excised bovine cornea (corneal barrier integrity); format: in vitro ADME; conditions: read-out: apparent permeability coefficient of mannitol
Protocol: The corneal barrier integrity in the ex vivo bovine model of Example 5 was also studied by analysis of ^3H-mannitol transport, with or without nanoparticle exposure. ^3H-mannitol was obtained from American Radiolabeled Chemicals, Inc. (St. Louis, Mo.). ^3H-mannitol transport across excised bovine cornea was performed without any treatment or after dosing the bovine ex vivo eye model with a 50 μl drop of assay buffer or 50 μl of 1 mg/ml nanoparticle suspension followed by incubation up to 60 min with buffer treatments as described above. Temperature was maintained at 37° C.
At 0, 5 and 60 minutes after assay buffer drop instillation and 60 min after nanoparticles drop instillation, the eyes were washed thrice with assay buffer (1 ml each time) and the corneas were isolated from the eyeball. The tissues were then mounted in modified Ussing chambers (Navicyte, Reno, N.Y.) for mannitol transport study. The aperture area of the chambers is 0.64 cm^2. The corneal area exposed was expected to be slightly greater than the chamber aperture area due to corneal curvature. ^3H-mannitol (1.5 ml; 1 μCi/ml) was placed in the donor chamber (epithelial to endothelial transport) and plain assay buffer (1.5 ml) was placed in the receiver chamber. At various time points up to 4 hours, 200 μl samples were removed from the receiver chamber and replaced with an equal volume of fresh assay buffer. To each sample, 4 ml of scintillation fluid (Fisher Scientific, NJ) was added and the radioactivity was quantified using a liquid scintillation counter. […] Data are expressed as mean±standard deviation for n=4.

[3] = tested on: excised bovine conjunctiva; test: Nanoparticle transport and uptake, excised bovine conjunctiva in modified Ussing chambers; format: in vitro ADME
Protocol: (§1) Nanoparticle uptake and transport studies were performed using excised bovine cornea and conjunctiva mounted in vertical diffusion chambers. Modified Ussing chambers (Navicyte, Reno, N.Y.) were used to mount bovine corneas and conjunctivas for transport studies. The tissues were exposed to 1.5 ml of assay buffer with either conjugated or unconjugated nanoparticles (100 μg/ml) on the mucosal/tear side (donor side). The area of exposure is 0.64 cm^2 for conjunctiva and slightly greater for cornea due to curvature. The receiver side was exposed to 1.5 ml of assay buffer without nanoparticles. The buffers were pre-equilibrated to 37° C. or 4° C. as required and the chambers were maintained at the desired temperature. […] The experiment was terminated at 4 hours and the samples were stored in polypropylene tubes at 4° C. until analysis.
(§2) At the end of 4 hour transport studies, the tissue area exposed to particle suspension (aperture area: 0.64 cm^2) were cut and washed thrice with assay buffer followed by the acid buffer (pH 5.0). The tissues were then homogenized in 2% Triton-X using Tissue Tearor™. The tissue debris was separated by centrifugation at 3000 rpm (Marathon Micro AR) for 10 minutes. The supernatant was collected to analyze the amount of nanoparticles taken up by the tissue. The supernatant was analyzed by spectrofluorometry at excitation and emission wavelengths of 505 and 515 nm, respectively.

[4] = Particle size, polydispersity and zeta-potential by dynamic light scattering; format: physicochemical; conditions: Table 2, polystyrene nanoparticles
Protocol: Nanoparticle carrier particles were formed by the methods of the preceding Example, and characterized as follows. The particle size and the zeta-potential were measured using Zeta Plus zeta-potential analyzer (Brookhaven Instruments Ltd., New York, N.Y.), which employs the dynamic light scattering technique for particle size measurement. The particle size and zeta-potential measurements were made after 1:1000 dilution of particle stock in filtered deionized water. Further, the particles were visualized using a transmission electron microscope (TEM). The carbon-coated grids were floated on a suspension droplet of plain or functionalized nanoparticles on a flexible plastic film (Parafilm, Pechiney Plastic Packaging, Neenah, Wis.) to allow the adsorption of nanoparticles onto the grid. After drying the particles, uranyl acetate was added as a negative stain to the carbon grid and allowed to react with the particles. This procedure makes the particles electron dense, allowing their visualization using an electron microscope. The particles were photographed using EM410 Phillips electron microscope (Eindhoven, The Netherlands) set at 60 kV and a magnification of 153000×.
Characterization of particles: The particle size and the zeta-potential were measured using ZetaPlus® zeta-potential analyzer, Brookhaven Instruments Ltd. (New York, N.Y.), which employs the dynamic light scattering technique for particle size measurement. The particle size and zeta-potential measurements were carried out after 1:1000 dilution of particle stock in filtered deionized water before lyophilization in filtered deionized water. The effective diameter of conjugated nanoparticles was higher than that of unconjugated nanoparticles.
Particle Size Analysis: Particle size and zeta-potential of the nanoparticles before and after conjugation following lyophilization were measured in double distilled water (100 μl of particle/1 ml of water) using dynamic light scattering (DLS). After lyophilization the plasmid loaded particles were weighed (1 mg) into glass Kimble tubes. To each tube, 1 ml of double distilled water was added and vortexed at high speed (Vortex Genie, Scientific Industries, Bohemia, N.Y.) till the particles were resuspended. The particle size and zeta potential was determined using dynamic light scattering after dilution (1:10 in double distilled water) (Brookhaven Instruments Corp., Holtsville, N.Y.). Nanoparticle size after lyophilization was 210.4±0.68 nm and zeta potential was −32.85±0.87 mV. Nanoparticle size and zeta potential was measured after conjugation with deslorelin and transferrin. Similarly, the unconjugated nanoparticles were also treated under the same conditions as with the conjugated nanoparticles (the conjugation protocol as mentioned above).
Transport studies were conducted in bovine nasal tissue. Bovine nasal tissue was obtained from freshly slaughtered cattle, and different regions (MTA, MTP, ITP) were prepared as described in Example 13. Nanoparticles coupled to deslorelin or transferring via aldehyde sulfate moieties were prepared as described in Example 3. The nanoparticle size was measured using a Zeta Plus Analyzer (Brookhaven Instruments Limited, UK). Particle size was analyzed before and after ligand conjugation in deionized filtered water.

[5] = tested on: bovine corneal epithelium, stroma, endothelium and aqueous humor; test: Eye drop nanoparticle uptake in excised (ex vivo) bovine eye model; format: in vitro ADME
Protocol: The precorneal residence of eye drops is very short and effective delivery to the cornea requires rapid binding and entry of drugs or carriers in vivo. The in vivo situation was simulated using an intact bovine eye for an ex vivo model. […] Then, the particle uptake at 5 and 60 min was measured following thorough washing of the eye surface to remove any loosely adherent particles. The uptake was expected to be the highest for the solutes or carriers tightly bound to the corneal surface or for those that are rapidly taken up by the corneal epithelium. To maintain the surface moisture and to simulate tear flow in part, buffer drops (50 μl) were administered every 15 min, and the water bath was sealed.
Freshly excised bovine eyes were obtained from a local slaughterhouse (Nebraska Beef, Omaha, Nebr.). The experiments were initiated within 2-3 hours after sacrifice. For the experiment, bovine eyes were placed in Teflon coated wells containing assay buffer to immerse the posterior segment, while exposing the cornea towards the surface. The Teflon coated well plate was placed in a shaking water bath maintained at 37° C. and the water bath was sealed with Saran Wrap™ (S.C. Johnson & Son, Inc., Racine, Wis.). Alternatively, the setup was placed in a cold room maintained at 4° C. Prior to dosing, the eyes were equilibrated for about 30 min with assay buffer at 37° C. or 4° C. as required. The measured temperatures of the vitreous humor and aqueous humor in the 37° C. study were ˜37° C. and ˜35° C., respectively. The measured temperature was ˜5° C. for both vitreous humor as well as aqueous humor in the 4° C. study. In the ex vivo studies, either 5 or 60 min time points were chosen since eye drops are rapidly cleared from the tissue surface and because high solute uptake is desired in a short time with eye drops.
Ex vivo model studies involved administration of a 50 μl dosing solution/suspension drop to the cornea followed by 50 μl drops of assay buffer on the cornea every 15 minutes to maintain corneal moisture. At the end of 0, 5, or 60 minutes study, the corneal surface was washed thrice with assay buffer (1 ml each time) followed by three washes with acid buffer (1 ml each time; assay buffer adjusted to pH 5.0 with HCl) to remove any loosely adherent nanoparticles prior to tissue analysis. The same protocol was followed even when plain buffer drops were assessed. To initiate the uptake experiment, a 50 μl eye drop of 10 mg/ml (in studies assessing the influence of epithelium in particle uptake) or 1 mg/ml nanoparticle suspension (unconjugated nanoparticles with carboxylate functionalities, deslorelin-CA and transferrin-CA) was topically administered to isolated bovine eyeballs. Buffer and wash treatments were performed as described above. At 5 and 60 minutes after drop instillation, the incubation was terminated and the corneal epithelium, stroma, endothelium and aqueous humor (0.5 ml) were isolated from the eyeball. The tissues were homogenized in 2% Triton-X. The supernatant obtained after centrifuging tissue homogenate at 5000 rpm (Marathon Micro AR, Fisher Scientific) for 10 minutes was analyzed by spectrofluorometry at excitation and emission wavelengths of 505 and 515 nm, respectively.

excised bovine cornea = test: Nanoparticle transport and uptake, excised bovine cornea in modified Ussing chambers; format: in vitro ADME
Protocol: as §1, §2

[6] = versus unconjugated nanoparticles, 37° C.
[7] = Corneal Epithelium, 50 μl of 1 mg/ml
[8] = Corneal Stroma, 50 μl of 1 mg/ml

CCNC(=O)[C@@H]1CCCN1C(=O)[C@H](CCCN=C(N)N)NC(=O)[C@H](CC(C)C)NC(=O)[C@@H](Cc1c[nH]c2ccccc12)NC(=O)[C@H](Cc1ccc(O)cc1)NC(=O)[C@H](CO)NC(=O)[C@H](Cc1c[nH]c2ccccc12)NC(=O)[C@H](Cc1cnc[nH]1)NC(=O)[C@@H]1CCC(=O)N1 [deslorelin]
IC50 (LHRH-receptor; ITP): 32.9 ± 1.25 nM
IC50 (LHRH-receptor; MTA): 53.2 ± 4 nM
IC50 (LHRH-receptor; MTP): 42.1 ± 1.83 nM
IC50 (LHRH-receptor; Pituitary, competition with 125I-deslorelin): 17.9 ± 0.449 nM
high affinity binding sites as share of all the binding sites available (LHRH-receptor; competition studies, nasal tissue regions): 60-70%

CCNC(=O)[C@@H]1CCCN1C(=O)[C@H](CCCNC(=N)N)NC(=O)[C@H](CC(C)C)NC(=O)[C@@H](CC(C)C)NC(=O)[C@H](Cc1ccc(O)cc1)NC(=O)[C@H](CO)NC(=O)[C@H](Cc1c[nH]c2ccccc12)NC(=O)[C@H](Cc1c[nH]cn1)NC(=O)[C@@H]1CCC(=O)N1 [leuprolide]
bioavailability ([1]; inhaled or intranasal): 2.9%
bioavailability [1]: 28%

OC[C@@H](O)[C@@H](O)[C@H](O)[C@H](O)CO [mannitol]
Papp at 4 h, 1 μCi/ml ([2]; corneas isolated at 5 min following 50 μl assay buffer drop): 0.5 ± 0.1 ×10⁻⁶ cm/s
Papp at 4 h, 1 μCi/ml ([2]; corneas isolated at 60 min following 50 μl assay buffer drop): 0.47 ± 0.04 ×10⁻⁶ cm/s
Papp at 4 h, 1 μCi/ml ([2]; freshly isolated corneas): 0.4 ± 0.1 ×10⁻⁶ cm/s

Transferrin-CA: transferrin-carboxylate-conjugated polystyrene nanoparticles
uptake in bovine conjunctiva at the end of 4 hours ([3]; 37° C.): 2.83±0.03%
cumulative transport in 4 hours across conjunctiva ([3]; 37° C., 100 μg/ml donor): 3.5±0.1%
reduction in conjunctival uptake at 4° C. ([3]; versus 37° C.): 52%
reduction in the cumulative transport in conjunctiva at 4° C. ([3]; versus 37° C.): 89%
increase of percent transport across conjunctiva by conjugation [3, 6]: 51%
Zeta potential [4]: −29.24 ± 4.33 mV
Measured Diameter ([4]; 1:1000 dilution in filtered deionized water, includes hydrodynamic layer, n = 3): 84.7 ± 0.8 nm
Corneal epithelial uptake (60 min) ([5]; Control (4° C.)): 307.1 ± 124 ng/mg tissue/mg dose
Corneal epithelial uptake (60 min) ([5]; Control (37° C.)): 1146.3 ± 306.6 ng/mg tissue/mg dose
Concentration at 5 min [5, 7]: 791 ± 239 ng/mg tissue/mg dose
Concentration at 60 min [5, 7]: 1146 ± 307 ng/mg tissue/mg dose
NP uptake at 5 min (%) [5, 7]: 4.96%
NP uptake at 60 min (%) [5, 7]: 7.19%
NP uptake at 5 min (%) [5, 8]: 10.98%
NP uptake at 60 min (%) [5, 8]: 3.31%
Corneal epithelial uptake (60 min) ([5]; With free ligand (37° C.), free deslorelin or transferrin 1 mg/ml): 467.1 ± 131.9 ng/mg tissue/mg dose
total corneal uptake in 5 min ([5]; summary of Examples 5-8): ~16%
uptake by isolated bovine cornea at the end of 4 hours (excised bovine cornea; 37° C.): 2.36±0.03%
cumulative transport in 4 hours across isolated bovine cornea (excised bovine cornea; 37° C., 100 μg/ml donor): 2.76±0.03%
reduction in corneal uptake at 4° C. (excised bovine cornea; versus 37° C.): 47%
increase of percent transport across bovine cornea by conjugation (excised bovine cornea; [6]): 74%
